Assay results reported in patent publication US12630600B2 (MEDIMMUNE LIMITED, priority 2022, dated 2026).
Starred links: 1 amine or outer side, 2 acyl side, 3 side chain; linkers in the order of their positions; H or OH if unused. Non-standard residues stand in square brackets, D forms with d. Groups on a side chain read outwards from the residue. No end group written: not given here. *: point of attachment. Trp(5-Br) = N[C@@H](Cc1c[nH]c2ccc(Br)cc12)C(=O)O; Bip = N[C@@H](Cc1ccc(-c2ccccc2)cc1)C(=O)O; C18 diacid = O=C(O)CCCCCCCCCCCCCCCCC(=O)*; γGlu = O=C(O)[C@H](CCC(=O)[*:2])N[*:1]; αMeF = C[C@](N)(Cc1ccccc1)C(=O)O; AEEA = NCCOCCOCC(=O)O; Aib = CC(C)(N)C(=O)O

B1: Peptide 429 (peptide)
peptide: H[Aib]QGTFTSDVSK[αMeF]LDSK([AEEA-AEEA-γGlu-C18 diacid])RAQDFVRWLEA[Aib]G-NH2
modifications: N-terminus assumed
SMILES: CC(C)C[C@H](NC(=O)[C@H](Cc1c[nH]c2ccccc12)NC(=O)[C@H](CCCNC(=N)N)NC(=O)[C@@H](NC(=O)[C@H](Cc1ccccc1)NC(=O)[C@H](CC(=O)O)NC(=O)[C@H](CCC(N)=O)NC(=O)[C@H](C)NC(=O)[C@H](CCCNC(=N)N)NC(=O)[C@H](CCCCNC(=O)COCCOCCNC(=O)COCCOCCNC(=O)CC[C@H](NC(=O)CCCCCCCCCCCCCCCCC(=O)O)C(=O)O)NC(=O)[C@H](CO)NC(=O)[C@H](CC(=O)O)NC(=O)[C@H](CC(C)C)NC(=O)[C@](C)(Cc1ccccc1)NC(=O)[C@H](CCCCN)NC(=O)[C@H](CO)NC(=O)[C@@H](NC(=O)[C@H](CC(=O)O)NC(=O)[C@H](CO)NC(=O)[C@@H](NC(=O)[C@H](Cc1ccccc1)NC(=O)[C@@H](NC(=O)CNC(=O)[C@H](CCC(N)=O)NC(=O)C(C)(C)NC(=O)[C@@H](N)Cc1c[nH]cn1)[C@@H](C)O)[C@@H](C)O)C(C)C)C(C)C)C(=O)N[C@@H](CCC(=O)O)C(=O)N[C@@H](C)C(=O)NC(C)(C)C(=O)NCC(N)=O
B2: Peptide 430 (peptide)
peptide: H[Aib]QGTFTSDVSK[αMeF]LDSK([AEEA-AEEA-γGlu-γGlu-C18 diacid])RAQDFVRWLEA[Aib]G-NH2
modifications: N-terminus assumed
SMILES: CC(C)C[C@H](NC(=O)[C@H](Cc1c[nH]c2ccccc12)NC(=O)[C@H](CCCNC(=N)N)NC(=O)[C@@H](NC(=O)[C@H](Cc1ccccc1)NC(=O)[C@H](CC(=O)O)NC(=O)[C@H](CCC(N)=O)NC(=O)[C@H](C)NC(=O)[C@H](CCCNC(=N)N)NC(=O)[C@H](CCCCNC(=O)COCCOCCNC(=O)COCCOCCNC(=O)CC[C@H](NC(=O)CC[C@H](NC(=O)CCCCCCCCCCCCCCCCC(=O)O)C(=O)O)C(=O)O)NC(=O)[C@H](CO)NC(=O)[C@H](CC(=O)O)NC(=O)[C@H](CC(C)C)NC(=O)[C@](C)(Cc1ccccc1)NC(=O)[C@H](CCCCN)NC(=O)[C@H](CO)NC(=O)[C@@H](NC(=O)[C@H](CC(=O)O)NC(=O)[C@H](CO)NC(=O)[C@@H](NC(=O)[C@H](Cc1ccccc1)NC(=O)[C@@H](NC(=O)CNC(=O)[C@H](CCC(N)=O)NC(=O)C(C)(C)NC(=O)[C@@H](N)Cc1c[nH]cn1)[C@@H](C)O)[C@@H](C)O)C(C)C)C(C)C)C(=O)N[C@@H](CCC(=O)O)C(=O)N[C@@H](C)C(=O)NC(C)(C)C(=O)NCC(N)=O
B3: Peptide 431 (peptide)
peptide: H[Aib]QGTFTSDVSK[αMeF]LDTK([AEEA-AEEA-γGlu-γGlu-C18 diacid])RAQDFVAWLEA[Aib]G-NH2
modifications: N-terminus assumed
SMILES: CC(C)C[C@H](NC(=O)[C@H](Cc1c[nH]c2ccccc12)NC(=O)[C@H](C)NC(=O)[C@@H](NC(=O)[C@H](Cc1ccccc1)NC(=O)[C@H](CC(=O)O)NC(=O)[C@H](CCC(N)=O)NC(=O)[C@H](C)NC(=O)[C@H](CCCNC(=N)N)NC(=O)[C@H](CCCCNC(=O)COCCOCCNC(=O)COCCOCCNC(=O)CC[C@H](NC(=O)CC[C@H](NC(=O)CCCCCCCCCCCCCCCCC(=O)O)C(=O)O)C(=O)O)NC(=O)[C@@H](NC(=O)[C@H](CC(=O)O)NC(=O)[C@H](CC(C)C)NC(=O)[C@](C)(Cc1ccccc1)NC(=O)[C@H](CCCCN)NC(=O)[C@H](CO)NC(=O)[C@@H](NC(=O)[C@H](CC(=O)O)NC(=O)[C@H](CO)NC(=O)[C@@H](NC(=O)[C@H](Cc1ccccc1)NC(=O)[C@@H](NC(=O)CNC(=O)[C@H](CCC(N)=O)NC(=O)C(C)(C)NC(=O)[C@@H](N)Cc1c[nH]cn1)[C@@H](C)O)[C@@H](C)O)C(C)C)[C@@H](C)O)C(C)C)C(=O)N[C@@H](CCC(=O)O)C(=O)N[C@@H](C)C(=O)NC(C)(C)C(=O)NCC(N)=O
B4: Peptide 432 (peptide)
peptide: H[Aib]QGTFTSDVSK[αMeF]LDSK([AEEA-AEEA-γGlu-C18 diacid])RAQDFVR[Bip]LL[Aib]E-OH
modifications: N-terminus assumed
SMILES: CC(C)C[C@H](NC(=O)[C@H](Cc1ccc(-c2ccccc2)cc1)NC(=O)[C@H](CCCNC(=N)N)NC(=O)[C@@H](NC(=O)[C@H](Cc1ccccc1)NC(=O)[C@H](CC(=O)O)NC(=O)[C@H](CCC(N)=O)NC(=O)[C@H](C)NC(=O)[C@H](CCCNC(=N)N)NC(=O)[C@H](CCCCNC(=O)COCCOCCNC(=O)COCCOCCNC(=O)CC[C@H](NC(=O)CCCCCCCCCCCCCCCCC(=O)O)C(=O)O)NC(=O)[C@H](CO)NC(=O)[C@H](CC(=O)O)NC(=O)[C@H](CC(C)C)NC(=O)[C@](C)(Cc1ccccc1)NC(=O)[C@H](CCCCN)NC(=O)[C@H](CO)NC(=O)[C@@H](NC(=O)[C@H](CC(=O)O)NC(=O)[C@H](CO)NC(=O)[C@@H](NC(=O)[C@H](Cc1ccccc1)NC(=O)[C@@H](NC(=O)CNC(=O)[C@H](CCC(N)=O)NC(=O)C(C)(C)NC(=O)[C@@H](N)Cc1c[nH]cn1)[C@@H](C)O)[C@@H](C)O)C(C)C)C(C)C)C(=O)N[C@@H](CC(C)C)C(=O)NC(C)(C)C(=O)N[C@@H](CCC(=O)O)C(=O)O
B5: Peptide 434 (peptide)
peptide: H[Aib]QGTFTSDVSK[αMeF]LDSK([AEEA-AEEA-γGlu-C18 diacid])RAQDFVR[Trp(5-Br)]LL[Aib]E-OH
modifications: N-terminus assumed
SMILES: CC(C)C[C@H](NC(=O)[C@H](Cc1c[nH]c2ccc(Br)cc12)NC(=O)[C@H](CCCNC(=N)N)NC(=O)[C@@H](NC(=O)[C@H](Cc1ccccc1)NC(=O)[C@H](CC(=O)O)NC(=O)[C@H](CCC(N)=O)NC(=O)[C@H](C)NC(=O)[C@H](CCCNC(=N)N)NC(=O)[C@H](CCCCNC(=O)COCCOCCNC(=O)COCCOCCNC(=O)CC[C@H](NC(=O)CCCCCCCCCCCCCCCCC(=O)O)C(=O)O)NC(=O)[C@H](CO)NC(=O)[C@H](CC(=O)O)NC(=O)[C@H](CC(C)C)NC(=O)[C@](C)(Cc1ccccc1)NC(=O)[C@H](CCCCN)NC(=O)[C@H](CO)NC(=O)[C@@H](NC(=O)[C@H](CC(=O)O)NC(=O)[C@H](CO)NC(=O)[C@@H](NC(=O)[C@H](Cc1ccccc1)NC(=O)[C@@H](NC(=O)CNC(=O)[C@H](CCC(N)=O)NC(=O)C(C)(C)NC(=O)[C@@H](N)Cc1c[nH]cn1)[C@@H](C)O)[C@@H](C)O)C(C)C)C(C)C)C(=O)N[C@@H](CC(C)C)C(=O)NC(C)(C)C(=O)N[C@@H](CCC(=O)O)C(=O)O
B6: Peptide 435 (peptide)
peptide: H[Aib]QGTFTSDVSK[αMeF]LDTK([AEEA-AEEA-γGlu-C18 diacid])RARDFVQ[Aib]LLE[Aib]G-OH
modifications: N-terminus assumed
SMILES: CC(C)C[C@H](NC(=O)[C@H](CC(C)C)NC(=O)C(C)(C)NC(=O)[C@H](CCC(N)=O)NC(=O)[C@@H](NC(=O)[C@H](Cc1ccccc1)NC(=O)[C@H](CC(=O)O)NC(=O)[C@H](CCCNC(=N)N)NC(=O)[C@H](C)NC(=O)[C@H](CCCNC(=N)N)NC(=O)[C@H](CCCCNC(=O)COCCOCCNC(=O)COCCOCCNC(=O)CC[C@H](NC(=O)CCCCCCCCCCCCCCCCC(=O)O)C(=O)O)NC(=O)[C@@H](NC(=O)[C@H](CC(=O)O)NC(=O)[C@H](CC(C)C)NC(=O)[C@](C)(Cc1ccccc1)NC(=O)[C@H](CCCCN)NC(=O)[C@H](CO)NC(=O)[C@@H](NC(=O)[C@H](CC(=O)O)NC(=O)[C@H](CO)NC(=O)[C@@H](NC(=O)[C@H](Cc1ccccc1)NC(=O)[C@@H](NC(=O)CNC(=O)[C@H](CCC(N)=O)NC(=O)C(C)(C)NC(=O)[C@@H](N)Cc1c[nH]cn1)[C@@H](C)O)[C@@H](C)O)C(C)C)[C@@H](C)O)C(C)C)C(=O)N[C@@H](CCC(=O)O)C(=O)NC(C)(C)C(=O)NCC(=O)O
B7: Peptide 436 (peptide)
peptide: H[Aib]QGTFTSDVSK[αMeF]LDRK([AEEA-AEEA-γGlu-C18 diacid])RAQDFVRWLV[Aib]E-NH2
modifications: N-terminus assumed
SMILES: CC(C)C[C@H](NC(=O)[C@H](Cc1c[nH]c2ccccc12)NC(=O)[C@H](CCCNC(=N)N)NC(=O)[C@@H](NC(=O)[C@H](Cc1ccccc1)NC(=O)[C@H](CC(=O)O)NC(=O)[C@H](CCC(N)=O)NC(=O)[C@H](C)NC(=O)[C@H](CCCNC(=N)N)NC(=O)[C@H](CCCCNC(=O)COCCOCCNC(=O)COCCOCCNC(=O)CC[C@H](NC(=O)CCCCCCCCCCCCCCCCC(=O)O)C(=O)O)NC(=O)[C@H](CCCNC(=N)N)NC(=O)[C@H](CC(=O)O)NC(=O)[C@H](CC(C)C)NC(=O)[C@](C)(Cc1ccccc1)NC(=O)[C@H](CCCCN)NC(=O)[C@H](CO)NC(=O)[C@@H](NC(=O)[C@H](CC(=O)O)NC(=O)[C@H](CO)NC(=O)[C@@H](NC(=O)[C@H](Cc1ccccc1)NC(=O)[C@@H](NC(=O)CNC(=O)[C@H](CCC(N)=O)NC(=O)C(C)(C)NC(=O)[C@@H](N)Cc1c[nH]cn1)[C@@H](C)O)[C@@H](C)O)C(C)C)C(C)C)C(=O)N[C@H](C(=O)NC(C)(C)C(=O)N[C@@H](CCC(=O)O)C(N)=O)C(C)C

Each binder was assayed against human GLP-1 receptor (human, UniProt P43220) (assay: cell-based or functional assay).

Row | Binder | cAMP production EC50
1 | B1 | 0.015 nM
2 | B2 | 0.0244 nM
3 | B3 | 0.0446 nM
4 | B4 | 1.38 nM
5 | B5 | 0.153 nM
6 | B6 | 0.0227 nM
7 | B7 | 0.00743 nM

Each binder was assayed against human glucagon receptor (human, UniProt P47871) (assay: cell-based or functional assay).

Row | Binder | cAMP production EC50
8 | B1 | 0.144 nM
9 | B2 | 0.16 nM
10 | B3 | 0.194 nM
11 | B4 | 1.16 nM
12 | B5 | 0.294 nM
13 | B6 | 0.24 nM
14 | B7 | 0.0688 nM
